Experimental data taken from publication PMC4737141.

Biological target: Recombinant human Tipin-His6 (human) (UniProt Q9BVW5)
Assay: SPR

UniProt Q9BVW5, sequence (Q9BVW5 whole entry): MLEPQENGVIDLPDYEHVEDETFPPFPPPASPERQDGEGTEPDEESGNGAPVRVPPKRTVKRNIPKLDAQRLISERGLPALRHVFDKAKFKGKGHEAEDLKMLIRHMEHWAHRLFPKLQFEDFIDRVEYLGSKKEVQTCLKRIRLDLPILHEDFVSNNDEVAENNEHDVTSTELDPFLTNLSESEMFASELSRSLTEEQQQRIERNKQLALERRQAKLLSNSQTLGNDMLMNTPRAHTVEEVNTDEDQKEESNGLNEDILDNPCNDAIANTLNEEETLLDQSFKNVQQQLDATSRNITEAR

Kd: 655 nM
Substance: Recombinant human DDX11-3xFLAG (from UniProt Q96FC9 1-970) (enzyme)
